From patent US20230159603A1

Target: CD122-Fc (UniProt P14784)
Assay: SPR, construct immobilised, CD122-Fc flowed, after protease cleavage

Chain of CD122-Fc (P14784 27-239 limits assumed): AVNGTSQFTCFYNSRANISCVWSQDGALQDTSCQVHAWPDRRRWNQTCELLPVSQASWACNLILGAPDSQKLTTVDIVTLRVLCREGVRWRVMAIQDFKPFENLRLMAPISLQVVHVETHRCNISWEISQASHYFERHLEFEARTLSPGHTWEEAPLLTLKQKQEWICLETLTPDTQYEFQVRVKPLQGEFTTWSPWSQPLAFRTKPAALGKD

B1: AK168 after protease cleavage (Fc fusion, from a related filing)
chain: LYHPSGPAPTSSSTKKTQLQLEHLLLDLQMILNGINNYKNPKLTAMLTAKFAMPKKATELKHLQCLEEALKPLEEVLNLAQSKNFHLRPRDLISNINVIVLELKGSETTFMCEYADETATIVEFLNRWITFAQSIISTLT
Kd: 175 nM
